We go through 2 molecules from patent US11434506B2, “Production of desaturated fatty alcohols and desaturated fatty alcohol acetates in yeast” (Danmarks Tekniske Universitet, priority 2016, dated 2022).

The test system of one assay is fall armyworm. Conditions: applied alone, without other pheromone components; cited from earlier work.
Assay [1] is described as follows: production of (Z)-9-tetradecen-1-yl acetate by S. cerevisiae CEN.PK102-5B strains, GC-MS. Conditions: overexpression of desaturase, ST5290 versus ST4854.
Description: The strains for production of pheromone were created on the basis of S. cerevisiae CEN.PK102-5B, which had active OLE1 and ELO1 genes.
Strains ST4854 and ST5290 were inoculated into 5 ml synthetic complete medium (lacking histidine, leucine, tryptophan supplemented with 20 mg/L uracil and 76 mg/L histidine) and cultivated in 12-ml glass tubes (Duran, Wertheim, Germany) with metal labocap lids (Lüdiswiss, Flawil, Switzerland) overnight at 30° C. with shaking at 250 rpm. The following day the overnight culture was centrifuged, the supernatant was discarded and the pellet was resuspended in 2 ml of mineral medium, which had the composition as described in (Jensen et al, 2014). The medium was supplemented with 76 mg/L histidine and 20 mg/L uracil. The cultures were incubated at 30° C. with shaking at 250 rpm for 48 hours.
1 mL sample of culture was transferred into a 4-mL glass vial and 10 μL of internal standard stock (1 μg/μl (Z)10-heptan-1-yl methyl ester in 100% ethanol) was added. The vials were covered with small pieces of aluminum foil and we used a needle to pierce small holes in the foil covers. The samples were vortexed and placed at −80° C. for storage until analysis. […] The concentration of (Z)-9-tetradecen-1-yl acetate was calculated based on internal standard.
The test system of the next assay is C14-CoA substrate. The assay is described as follows: activity and specificity of heterologous desaturases in yeast fed methyl myristate, FAMEs by GC-MS. Type of assay: cell-based, S. cerevisiae. The settings on record: among the tested desaturases.

In the case of `CCCC/C=C\CCCCCCCCOC(C)=O` [(Z)19-14:OAc, (Z)9-tetradecen-1-yl acetate], the “disruption of mating efficiency” value with fall armyworm was 86%.

B1: D. melanogaster desaturase: Δ9 desaturase from Drosophila melanogaster Dmd9, SEQ ID NO: 10 (protein)
chain: MAPYSRIYHQDKSSRETGVLFEDDAQTVDSDLTTDRFQLKRAEKRRLPLVWRNIILFALVHLAALYGLHSIFTRAKLATTLFAAGLYIIGMLGVTAGAHRLWAHRTYKAKWPLRLLLVIFNTIAFQDAVYHWARDHRVHHKYSETDADPHNATRGFFFSHVGWLLCKKHPDIKEKGRGLDLSDLRADPILMFQRKHYYILMPLACFVLPTVIPMVYWNETLASSWFVATMFRWCFQLNMTWLVNSAAHKFGNRPYDKTMNPTQNAFVSAFTFGEGWHNYHHAFPWDYKTAEWGCYSLNITTAFIDLFAKIGWAYDLKTVAPDVIQRRVLRTGDGSHELWGWGDKDLTAEDARNVLLVDKSR
modifications: Drosophila melanogaster
On to B1, for which the “increase of titer of Z9:14:OAc” value in assay [1] is “more than 5 fold”. Moreover, the “activity and specificity towards C14-CoA substrate” value in the assay on C14-CoA substrate was “highest activity and specificity”.
